Experimental data taken from patent US20240270860A1.

Target: T1, S03933
T1 chain: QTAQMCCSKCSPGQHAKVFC
Assay: linear peptide ELISA; Affinity +
Settings: remark: other sources report otherwise

B1: antagonistic TNFR2 antibody TNFRAB1 (antibody, V domains shown)
VH: EVQLQESGGGLVKPGGSLKLSCAASGFTFSSYVMSWVRQTPEKRLEWVATISSGGSYTYYPDSVKGRFTISRDNAKNTLYLQMSSLRSEDTAMYYCARQRVDGYSSYWYFDVWGAGTAVTVSS
VL: DIVLTQSPAIMSASPGEKVTITCSASSSVYYMYWFQQKPGTSPKLWIYSTSNLASGVPVRFSGSGSGTSYSLTISRMEAEDAATYYCQQRRNYPYTFGGGTKLEIKRA
B1 was tested, and the Reading was 0.1.
